Here are results for 91 sequences from the supplement of paper PMC9112550, “Optimization of the antimicrobial peptide Bac7 by deep mutational scanning” (BMC Biology, 2022).

The series relates to Escherichia coli TOP10. Briefly: shrunken log2 fold change of peptide-encoding DNA abundance (4.5 h post-induction vs induction); higher = less antimicrobial activity (less host growth inhibition). The following applies: time post-induction: 4.5 h; library: site-saturation at positions 5, 18, 19, 20.
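Also: peptides expressed intracellularly from a pBAD plasmid library in pooled LB shake-flask culture, induced with 0.3% L-arabinose, DNA abundance read by NGS, three biological replicates, DESeq2 with apeglm shrinkage.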

Turning to RRIRHRPPRLPRPRPRPYHYPRP, the “shrunken log2 fold change” value is -0.125.

As for RRIRGRPPRLPRPRPRPYHGPRP, the “shrunken log2 fold change” value was -0.459.

Consider RRIRWRPPRLPRPRPRPRDGPRP, for which the “shrunken log2 fold change” value is 1.12.

With RRIRDRPPRLPRPRPRPSQTPRP, the “shrunken log2 fold change” value is -0.244.

Take RRIRIRPPRLPRPRPRPSHVPRP: the “shrunken log2 fold change” value is -0.523.

On to RRIRARPPRLPRPRPRPPSNPRP, for which the “shrunken log2 fold change” value was found to be 0.195.

Turning to RRIRSRPPRLPRPRPRPCRFPRP, the “shrunken log2 fold change” value is -0.0924.

Consider RRIRDRPPRLPRPRPRPSYQPRP, for which the “shrunken log2 fold change” value is -0.494.

On to RRIRLRPPRLPRPRPRPRWKPRP, for which the “shrunken log2 fold change” value is 0.191.

In the case of RRIRNRPPRLPRPRPRPNTPPRP, the “shrunken log2 fold change” value is -0.543.

In the case of RRIRSRPPRLPRPRPRPDMPPRP, the “shrunken log2 fold change” value is -0.0754.

Turning to RRIRARPPRLPRPRPRPVVVPRP, the “shrunken log2 fold change” value is 0.652.

As for RRIRDRPPRLPRPRPRPFGMPRP, the “shrunken log2 fold change” value was -0.0413.

Take RRIRKRPPRLPRPRPRPMGLPRP: the “shrunken log2 fold change” value was -0.000777.

For the sequence RRIRFRPPRLPRPRPRPAAYPRP, the “shrunken log2 fold change” value is -0.341.

Turning to RRIRCRPPRLPRPRPRPLPEPRP, the “shrunken log2 fold change” value worked out at 0.397.

For RRIRFRPPRLPRPRPRPMSNPRP, the “shrunken log2 fold change” value amounted to 0.0556.

As for RRIRNRPPRLPRPRPRPPPDPRP, the “shrunken log2 fold change” value is 0.794.

Turning to RRIRPRPPRLPRPRPRPCPFPRP, the “shrunken log2 fold change” value is -0.371.

For the sequence RRIRTRPPRLPRPRPRPEEKPRP, the “shrunken log2 fold change” value worked out at 0.167.

Consider RRIRERPPRLPRPRPRPFLLPRP, for which the “shrunken log2 fold change” value is -0.688.

With RRIRNRPPRLPRPRPRPPKGPRP, the “shrunken log2 fold change” value was found to be 0.112.

RRIRQRPPRLPRPRPRPEQDPRP: the “shrunken log2 fold change” value was 0.311.

Take RRIRNRPPRLPRPRPRPWGPPRP: the “shrunken log2 fold change” value was -0.37.

On to RRIRHRPPRLPRPRPRPQDYPRP, for which the “shrunken log2 fold change” value was -0.101.

Turning to RRIRSRPPRLPRPRPRPMIRPRP, the “shrunken log2 fold change” value is 0.0902.

For RRIRCRPPRLPRPRPRPSHRPRP, the “shrunken log2 fold change” value was -0.508.

Consider RRIRQRPPRLPRPRPRPNFTPRP, for which the “shrunken log2 fold change” value is -0.186.

For the sequence RRIRWRPPRLPRPRPRPHWLPRP, the “shrunken log2 fold change” value is 0.243.

Take RRIRTRPPRLPRPRPRPFRCPRP: the “shrunken log2 fold change” value was 0.0246.

As for RRIRKRPPRLPRPRPRPAVFPRP, the “shrunken log2 fold change” value came out at 0.271.

Regarding RRIRKRPPRLPRPRPRPPCVPRP, the “shrunken log2 fold change” value worked out at 0.443.

RRIRCRPPRLPRPRPRPPSTPRP: the “shrunken log2 fold change” value was -0.0239.

In the case of RRIRQRPPRLPRPRPRPPCKPRP, the “shrunken log2 fold change” value is 0.0303.

Regarding RRIRPRPPRLPRPRPRPFDNPRP, the “shrunken log2 fold change” value was -0.299.

With RRIRKRPPRLPRPRPRPMCPPRP, the “shrunken log2 fold change” value came out at 0.199.

As to RRIRRRPPRLPRPRPRPGWHPRP, the “shrunken log2 fold change” value amounted to 0.176.

As to RRIRDRPPRLPRPRPRPPKIPRP, the “shrunken log2 fold change” value was -0.0144.

RRIRIRPPRLPRPRPRPIRWPRP: the “shrunken log2 fold change” value was found to be 0.0124.

Turning to RRIRMRPPRLPRPRPRPFHKPRP, the “shrunken log2 fold change” value was 0.0887.

Consider RRIRARPPRLPRPRPRPPHVPRP, for which the “shrunken log2 fold change” value was 0.805.

For RRIRYRPPRLPRPRPRPGWNPRP, the “shrunken log2 fold change” value was -0.182.

For RRIRIRPPRLPRPRPRPQSIPRP, the “shrunken log2 fold change” value was -0.0763.

As to RRIRNRPPRLPRPRPRPIHTPRP, the “shrunken log2 fold change” value is -0.0125.

Turning to RRIRYRPPRLPRPRPRPAAQPRP, the “shrunken log2 fold change” value stood at 0.466.

Consider RRIRYRPPRLPRPRPRPKMFPRP, for which the “shrunken log2 fold change” value is -0.845.

Regarding RRIRCRPPRLPRPRPRPKTGPRP, the “shrunken log2 fold change” value is -0.0569.

As for RRIRYRPPRLPRPRPRPEWKPRP, the “shrunken log2 fold change” value is -0.000687.

Regarding RRIRFRPPRLPRPRPRPWIHPRP, the “shrunken log2 fold change” value was -0.804.

Consider RRIRMRPPRLPRPRPRPGHFPRP, for which the “shrunken log2 fold change” value amounted to 0.274.

Take RRIRNRPPRLPRPRPRPMWWPRP: the “shrunken log2 fold change” value is -0.0071.

RRIRDRPPRLPRPRPRPNYNPRP: the “shrunken log2 fold change” value is -0.865.

Take RRIRIRPPRLPRPRPRPAHQPRP: the “shrunken log2 fold change” value is -0.0564.

As to RRIRWRPPRLPRPRPRPVSNPRP, the “shrunken log2 fold change” value stood at 0.0778.

For RRIRSRPPRLPRPRPRPKCAPRP, the “shrunken log2 fold change” value amounted to 0.0261.

Turning to RRIRCRPPRLPRPRPRPWQVPRP, the “shrunken log2 fold change” value came out at 0.00859.

With RRIRWRPPRLPRPRPRPAKIPRP, the “shrunken log2 fold change” value was determined as 0.132.

As for RRIRHRPPRLPRPRPRPFVEPRP, the “shrunken log2 fold change” value is -0.45.

Take RRIRHRPPRLPRPRPRPHLFPRP: the “shrunken log2 fold change” value was -0.154.

RRIRSRPPRLPRPRPRPLIQPRP: the “shrunken log2 fold change” value was -0.319.

Regarding RRIRSRPPRLPRPRPRPWMMPRP, the “shrunken log2 fold change” value was -0.165.

With RRIRSRPPRLPRPRPRPDIEPRP, the “shrunken log2 fold change” value amounted to 0.0454.

For the sequence RRIRWRPPRLPRPRPRPAEQPRP, the “shrunken log2 fold change” value is -0.00651.

Regarding RRIRRRPPRLPRPRPRPRNSPRP, the “shrunken log2 fold change” value is -0.0834.

On to RRIRGRPPRLPRPRPRPCFEPRP, for which the “shrunken log2 fold change” value was 0.629.

RRIRPRPPRLPRPRPRPWFPPRP: the “shrunken log2 fold change” value is -0.215.

Regarding RRIRGRPPRLPRPRPRPVVAPRP, the “shrunken log2 fold change” value turned out to be 1.19.

Turning to RRIRQRPPRLPRPRPRPPRYPRP, the “shrunken log2 fold change” value was found to be 0.606.

For the sequence RRIRARPPRLPRPRPRPDGFPRP, the “shrunken log2 fold change” value was determined as 0.135.

With RRIRRRPPRLPRPRPRPWMPPRP, the “shrunken log2 fold change” value was -0.217.

For the sequence RRIRARPPRLPRPRPRPIWGPRP, the “shrunken log2 fold change” value was 0.302.

With RRIRMRPPRLPRPRPRPGMVPRP, the “shrunken log2 fold change” value stood at 0.263.

On to RRIRWRPPRLPRPRPRPRWTPRP, for which the “shrunken log2 fold change” value turned out to be 0.386.

In the case of RRIRHRPPRLPRPRPRPEWIPRP, the “shrunken log2 fold change” value is -0.0632.

Consider RRIRMRPPRLPRPRPRPHMRPRP, for which the “shrunken log2 fold change” value came to 0.509.

For RRIRFRPPRLPRPRPRPCLKPRP, the “shrunken log2 fold change” value was -0.148.

On to RRIRERPPRLPRPRPRPDKIPRP, for which the “shrunken log2 fold change” value is -0.0617.

As for RRIRTRPPRLPRPRPRPWKFPRP, the “shrunken log2 fold change” value was -0.0178.

Consider RRIRLRPPRLPRPRPRPFTLPRP, for which the “shrunken log2 fold change” value was -0.192.

RRIRLRPPRLPRPRPRPNMTPRP: the “shrunken log2 fold change” value is -0.0555.

Turning to RRIRNRPPRLPRPRPRPCDSPRP, the “shrunken log2 fold change” value turned out to be 0.11.

For RRIRYRPPRLPRPRPRPMRGPRP, the “shrunken log2 fold change” value came out at 0.156.

For RRIRRRPPRLPRPRPRPFYCPRP, the “shrunken log2 fold change” value was -0.162.

Regarding RRIRDRPPRLPRPRPRPPQVPRP, the “shrunken log2 fold change” value was determined as 0.272.

Consider RRIRKRPPRLPRPRPRPGGNPRP, for which the “shrunken log2 fold change” value came to 0.049.

Consider RRIRRRPPRLPRPRPRPGLKPRP, for which the “shrunken log2 fold change” value is 0.377.

With RRIRWRPPRLPRPRPRPDSHPRP, the “shrunken log2 fold change” value was -0.126.

In the case of RRIRFRPPRLPRPRPRPLVQPRP, the “shrunken log2 fold change” value was -0.052.

On to RRIRCRPPRLPRPRPRPGTEPRP, for which the “shrunken log2 fold change” value came to 0.078.

For the sequence RRIRTRPPRLPRPRPRPMSHPRP, the “shrunken log2 fold change” value is -0.238.

RRIRMRPPRLPRPRPRPWPDPRP: the “shrunken log2 fold change” value is 0.592.
